Data on 1 substance can be found in patent US20150330991A1, “METHOD FOR IMPROVING TARGET AFFINITY OF PEPTIDE” (GWANGJU INSTITUTE OF SCIENCE AND TECHNOLOGY, priority 2012, published 2015).

A word on the Kd: it is the constant that tells how readily two partners part at equilibrium. A high value points to weaker binding.

In test [1] the target is vascular endothelial growth factor receptor 1 (VEGFR1) (UniProt P17948). Nature of the test: SPR (Biacore X), VEGFR1 immobilised on a CM5 chip per paragraph 186; compared with the linear peptide CQRPPR at 1 mM. For orientation: SPR reads the build-up and loss of mass on a sensor chip optically.
Test [2] has the same target. Nature of the test: SPR (Biacore X), VEGFR1 immobilised on a CM5 chip per paragraph 186; four sensorgrams with fitted curves.

Sequence of vascular endothelial growth factor receptor 1 (VEGFR1) (P17948 27-756 limits assumed): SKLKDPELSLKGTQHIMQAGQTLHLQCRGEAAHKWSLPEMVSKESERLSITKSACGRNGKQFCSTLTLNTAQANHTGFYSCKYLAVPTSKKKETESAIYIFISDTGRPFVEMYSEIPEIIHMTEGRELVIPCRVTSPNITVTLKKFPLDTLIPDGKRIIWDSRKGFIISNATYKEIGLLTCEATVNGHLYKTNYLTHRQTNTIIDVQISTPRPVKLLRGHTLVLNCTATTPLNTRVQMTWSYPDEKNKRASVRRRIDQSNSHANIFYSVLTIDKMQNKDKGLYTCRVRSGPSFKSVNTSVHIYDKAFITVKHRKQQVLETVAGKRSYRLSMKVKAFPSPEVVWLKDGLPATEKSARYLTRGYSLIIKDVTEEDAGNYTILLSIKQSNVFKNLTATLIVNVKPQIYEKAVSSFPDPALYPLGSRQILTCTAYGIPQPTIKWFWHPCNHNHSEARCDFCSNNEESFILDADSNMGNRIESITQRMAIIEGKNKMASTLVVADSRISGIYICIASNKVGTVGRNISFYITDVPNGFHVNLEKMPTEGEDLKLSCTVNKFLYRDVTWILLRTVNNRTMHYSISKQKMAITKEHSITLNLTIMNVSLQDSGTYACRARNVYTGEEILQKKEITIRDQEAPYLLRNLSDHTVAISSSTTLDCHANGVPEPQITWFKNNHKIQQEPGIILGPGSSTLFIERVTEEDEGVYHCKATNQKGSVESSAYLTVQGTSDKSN

For the substance “bipodal peptide drawn as CQRPPR-GGG-[W--W hairpin]-G-RIPKNR”, the fold increase in affinity in test [1] is greater than 10000 fold. Further, the Kd in test [2] is 0.212 µM.
